From patent US20210355235A1 (YALE UNIVERSITY, published 2021)

B1: anti-renalase monoclonal antibody 1D-28-4 (antibody, V domains shown)
VH: QSVEESGGRLVTPGTPLTLTCTVSGFSLSSFAVGWVRQAPGKGLEYIGIISSVGITRYASWAAGRFTISKTSTTVDLKITSPTTEDTATYFCARYGYSGDVNRLDLWGQGTLVTVSS
VL: AQVLTQTASPVSAAVGGTVTINCQASQSVYDNNNLAWYQQKPGQPPKQLIYGASTLASGVSSRFKGSGSGTQFTLTISGVQCDDAATYYCLGEFSCSSADCFAFGGGTEVVVKG
notes: Rabbit monoclonal IgG raised against peptide 1D (RP-220); also called m28-RNLS; Bio-1D 28-4
B2: anti-renalase monoclonal antibody 1F-26-1 (antibody, V domains shown)
VH: QSVKESEGGLFKPTDTLTLTCTVSGFSLSSYGVTWVRQAPGNGLEWIGLIGDRGTTFYASWAKSRSTITRNTNLNTVTLKMTRLTAADTATYFCARGSGYGARIWGPGTLVTVSS
VL: AQVLTQTPSPVSAAVGGTVTINCQSSQSVYKNNYLAWYQQKPGQPPKLLIYETSKLASGVPPRFSGSGSGTQFTLTISSVQCDDAATYYCQGGYSGVDFMAFGGGTEVVVKG
notes: Rabbit monoclonal IgG raised against peptide 1F; Biotinylated in the Biacore study; also called Bio-1F 26-1
B3: anti-renalase monoclonal antibody 1F-42-7 (antibody, V domains shown)
VH: QSVKESEGGLFKPTDTLTLTCTVSGFSLTTYGVTWVRQAPGNGLEWIGLIGDRGTTYYASWVNGRSTITRNTNLNTVTLKMTRLTAADTATYFCARGSGYGARIWGPGTLVTVAS
VL: AQVLTQTPSPMSAALGGTVTINCQSSQTVYNNNYLSWYQQKPGQPPKLLIYETSKLSSGVPPRFSGSGSGTQFTLTISSVQCDDAATYYCQGGYSGVDFMAFGGGTEVVVKG
notes: Rabbit monoclonal IgG raised against peptide 1F; Biotinylated in the Biacore study; also called Bio-1F 42-7
B4: anti-renalase monoclonal antibody 1D-37-10 (antibody, V domains shown)
VH: QSVEESGGRLVTPGGSLTLTCTVSGFSLSDYAIIWVRQAPGKGLEYIAIIGSSGDTFYATWAKGRFTISKTSTTVDLKMTSLTAADTATYFCAPRYAGTTDYHDAFDPWGPGTLVTVSS
VL: EVVMTQTPASMEAPMGGTVTIKCQASQNIYNYLSWYQQKPGQPPKLLVYKASTLTSGVPSRFKGSGSGTQFTLTISDLECADAATYYCQINYSIYNHYNIIFGGGTEVVVKG
notes: Rabbit monoclonal IgG raised against peptide 1D (RP-220); Biotinylated in the Biacore study; also called m37-RNLS; Bio-1D 37-10

Each binder was assayed against T1, human renalase-1 (Homo sapiens, UniProt Q5VYX0 18-342, limits assumed) (assay: SPR, Biacore T100; biotinylated antibody captured on streptavidin chip, renalase-1 in solution).
T1 construct: Whole entry named for renalase-1 (Glu at position 37); also called R1; HuRenalase-1
T1 sequence (Q5VYX0 18-342 limits assumed): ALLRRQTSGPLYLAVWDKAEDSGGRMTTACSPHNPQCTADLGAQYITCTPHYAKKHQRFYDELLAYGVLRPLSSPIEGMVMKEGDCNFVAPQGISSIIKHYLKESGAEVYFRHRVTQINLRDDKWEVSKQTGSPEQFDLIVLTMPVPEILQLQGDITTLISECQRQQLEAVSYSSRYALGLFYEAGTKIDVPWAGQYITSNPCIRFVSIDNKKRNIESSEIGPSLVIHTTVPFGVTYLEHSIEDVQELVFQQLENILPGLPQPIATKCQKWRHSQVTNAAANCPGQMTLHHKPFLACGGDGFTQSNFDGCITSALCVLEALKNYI
Procedure: Binding studies were performed using a Biacore T100. Binding studies were performed at 25° C. using 25 mM Tris pH 8, 150 mM NaCl, 1 mM EDTA, 10% glycerol, 0.005% Tween-20 and 0.1 mg/mL BSA as the running buffer. The biotinylated antibodies were captured on individual streptavidin sensor chip flow cells as shown below. Because the study took two sensor chips, the analysis of two of the mAbs on the second sensor chip was repeated to gather more data. Renalase-1 was tested at 50 nM as the highest concentration in a three-fold dilution series. Each of 5 concentrations was tested in duplicate. Bound complexes were regenerated with a short pulse of 1/1000 phosphoric acid.
With B1 the Kd was 0.316 nM, the koff was 2.04e-05 s⁻¹ and the kon was 64700 M⁻¹ s⁻¹. B2 gave a Kd of 2.25 nM, a koff of 0.000102 s⁻¹ and a kon of 45300 M⁻¹ s⁻¹. B3 gave a Kd of 2.41 nM, a koff of 9.47e-05 s⁻¹ and a kon of 39300 M⁻¹ s⁻¹. Binder B4 has a Kd of 2.67 nM, a koff of 4.67e-05 s⁻¹ and a kon of 17500 M⁻¹ s⁻¹.
